Laboratory results taken from patent publication US20200340042, “IN VITRO SELECTION FOR NUCLEIC ACID […]” (McMaster University, published 2020).

Columns and labels:
[1] = target: T1, glutamate dehydrogenase (rGDH, recombinant) (Clostridium difficile, UniProt P27346 SEQ:1-421); test: pulldown; competes with Anti-G1T1, same epitope; settings: tags: His-tag; expressed in E. coli; Pro-Lab Diagnostics; chain copies: 6; label: 32P; linear
T1 sequence: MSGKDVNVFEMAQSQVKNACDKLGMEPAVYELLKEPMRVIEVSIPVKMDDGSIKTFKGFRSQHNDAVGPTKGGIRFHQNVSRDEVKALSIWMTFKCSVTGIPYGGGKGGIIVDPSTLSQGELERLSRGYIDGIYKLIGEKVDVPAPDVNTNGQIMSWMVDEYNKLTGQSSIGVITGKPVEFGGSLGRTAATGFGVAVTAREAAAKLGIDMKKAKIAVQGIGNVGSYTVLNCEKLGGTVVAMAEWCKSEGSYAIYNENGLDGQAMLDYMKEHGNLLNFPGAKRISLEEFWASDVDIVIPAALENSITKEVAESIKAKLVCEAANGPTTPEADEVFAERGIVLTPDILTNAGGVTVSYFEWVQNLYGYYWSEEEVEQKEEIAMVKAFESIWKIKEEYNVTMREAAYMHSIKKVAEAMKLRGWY

[2] = target: bovine serum albumin (BSA) (UniProt P02769 P02769:25-607)
Chain of bovine serum albumin (BSA) (P02769 25-607, one chain of several): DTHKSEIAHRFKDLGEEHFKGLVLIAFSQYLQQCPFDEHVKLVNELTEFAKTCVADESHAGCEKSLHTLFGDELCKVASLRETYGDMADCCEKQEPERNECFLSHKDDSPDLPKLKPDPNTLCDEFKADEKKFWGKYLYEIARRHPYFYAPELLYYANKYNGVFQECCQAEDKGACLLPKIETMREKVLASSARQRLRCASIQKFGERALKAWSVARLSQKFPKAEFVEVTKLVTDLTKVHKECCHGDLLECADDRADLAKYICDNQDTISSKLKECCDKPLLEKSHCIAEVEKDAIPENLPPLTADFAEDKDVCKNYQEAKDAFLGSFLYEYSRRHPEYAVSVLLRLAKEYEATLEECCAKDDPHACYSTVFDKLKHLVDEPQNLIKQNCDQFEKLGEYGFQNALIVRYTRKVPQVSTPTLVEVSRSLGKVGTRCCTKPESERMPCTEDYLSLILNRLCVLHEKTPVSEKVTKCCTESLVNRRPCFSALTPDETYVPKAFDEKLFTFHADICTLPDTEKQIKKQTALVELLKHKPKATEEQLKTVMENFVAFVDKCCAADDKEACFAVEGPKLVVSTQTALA

toxin B (TcdB) = toxin B (TcdB) (Clostridium difficile, UniProt P18177 SEQ:2-2366)
Chain of toxin B (TcdB) (P18177 2-2366): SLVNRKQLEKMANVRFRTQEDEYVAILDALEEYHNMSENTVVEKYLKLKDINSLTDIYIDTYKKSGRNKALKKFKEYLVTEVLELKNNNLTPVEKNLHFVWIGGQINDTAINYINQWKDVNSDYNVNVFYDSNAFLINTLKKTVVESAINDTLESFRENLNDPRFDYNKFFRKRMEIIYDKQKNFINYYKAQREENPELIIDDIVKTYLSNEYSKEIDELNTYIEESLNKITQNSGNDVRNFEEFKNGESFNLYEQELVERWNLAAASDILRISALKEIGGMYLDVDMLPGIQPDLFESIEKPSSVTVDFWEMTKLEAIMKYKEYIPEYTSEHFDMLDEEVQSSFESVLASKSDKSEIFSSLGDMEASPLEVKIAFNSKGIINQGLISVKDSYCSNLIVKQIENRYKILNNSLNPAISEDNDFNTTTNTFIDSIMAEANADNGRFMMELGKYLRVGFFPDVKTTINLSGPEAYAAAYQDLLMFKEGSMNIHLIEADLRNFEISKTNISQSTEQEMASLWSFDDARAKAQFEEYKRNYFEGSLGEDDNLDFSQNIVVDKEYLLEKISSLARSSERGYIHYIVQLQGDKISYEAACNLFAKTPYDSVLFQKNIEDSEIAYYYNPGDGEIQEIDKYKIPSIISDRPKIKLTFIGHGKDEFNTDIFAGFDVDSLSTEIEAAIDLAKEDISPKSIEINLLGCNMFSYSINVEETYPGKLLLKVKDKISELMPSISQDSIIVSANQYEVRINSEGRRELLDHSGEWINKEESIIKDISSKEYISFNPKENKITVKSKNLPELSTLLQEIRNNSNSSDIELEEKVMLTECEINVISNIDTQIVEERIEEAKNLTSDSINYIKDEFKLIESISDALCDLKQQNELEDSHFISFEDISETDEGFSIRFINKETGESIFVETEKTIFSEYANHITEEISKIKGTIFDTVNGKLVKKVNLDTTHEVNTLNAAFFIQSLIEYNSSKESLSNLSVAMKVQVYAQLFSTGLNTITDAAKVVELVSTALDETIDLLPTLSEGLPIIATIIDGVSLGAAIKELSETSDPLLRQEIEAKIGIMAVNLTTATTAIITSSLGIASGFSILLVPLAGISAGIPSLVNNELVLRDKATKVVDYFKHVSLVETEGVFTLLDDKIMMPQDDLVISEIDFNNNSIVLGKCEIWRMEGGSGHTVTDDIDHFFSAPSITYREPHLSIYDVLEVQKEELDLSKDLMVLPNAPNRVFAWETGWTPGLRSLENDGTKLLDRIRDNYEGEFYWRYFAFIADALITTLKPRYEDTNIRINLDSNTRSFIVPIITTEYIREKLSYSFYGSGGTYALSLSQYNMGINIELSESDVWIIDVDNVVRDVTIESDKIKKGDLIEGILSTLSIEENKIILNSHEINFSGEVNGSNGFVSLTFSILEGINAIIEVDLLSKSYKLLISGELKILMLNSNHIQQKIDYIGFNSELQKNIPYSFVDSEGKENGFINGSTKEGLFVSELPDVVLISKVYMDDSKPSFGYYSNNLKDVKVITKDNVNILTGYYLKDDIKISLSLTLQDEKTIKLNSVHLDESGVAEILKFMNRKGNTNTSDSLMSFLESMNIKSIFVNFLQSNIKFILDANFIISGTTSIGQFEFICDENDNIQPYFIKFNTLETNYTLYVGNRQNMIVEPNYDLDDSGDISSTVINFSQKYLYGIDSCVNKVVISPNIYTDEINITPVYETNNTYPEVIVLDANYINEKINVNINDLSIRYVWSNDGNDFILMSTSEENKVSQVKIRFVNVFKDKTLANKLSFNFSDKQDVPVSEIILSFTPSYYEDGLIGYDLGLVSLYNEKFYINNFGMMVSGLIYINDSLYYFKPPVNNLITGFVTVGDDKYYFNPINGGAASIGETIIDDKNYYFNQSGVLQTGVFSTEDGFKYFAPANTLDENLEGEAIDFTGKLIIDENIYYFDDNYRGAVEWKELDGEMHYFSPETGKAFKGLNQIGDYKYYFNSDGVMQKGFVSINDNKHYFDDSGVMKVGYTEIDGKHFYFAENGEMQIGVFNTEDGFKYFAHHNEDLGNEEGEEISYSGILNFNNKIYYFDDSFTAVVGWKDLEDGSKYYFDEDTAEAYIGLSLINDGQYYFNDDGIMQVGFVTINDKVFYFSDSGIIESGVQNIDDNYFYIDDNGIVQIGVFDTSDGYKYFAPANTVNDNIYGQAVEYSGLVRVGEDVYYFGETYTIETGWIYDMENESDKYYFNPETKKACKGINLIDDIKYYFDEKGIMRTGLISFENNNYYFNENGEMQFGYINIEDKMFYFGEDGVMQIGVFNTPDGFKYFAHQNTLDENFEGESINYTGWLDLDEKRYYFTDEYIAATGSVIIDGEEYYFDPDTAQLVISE

toxin A (TcdA) = toxin A (TcdA) (Clostridium difficile, UniProt P16154 SEQ:1-2710)
[3] = target: T1, glutamate dehydrogenase (rGDH, …); test: pulldown; 10 mM MgCl2, 150 mM NaCl, pH 7.2, 25 C; epitope distinct from aptamer 2; settings: tags: His-tag; expressed in E. coli; Pro-Lab Diagnostics; chain copies: 6; label: 32P
Method: (§1) Following three washing steps, proteins and bound aptamers were eluted with 30 μL of elution buffer (20 mM Tris-HCl, 500 mM imidazole, pH 7.5) by shaking at 90° C. for 10 min. The resultant mixtures were then analyzed by 10% dPAGE, and quantified by Image Quant software. […] Pull-down assays were conducted in a total volume of 300 μL of 1× binding buffer containing 10 μL of bead-bound rGDH (final concentration ˜9.2 nM) and 100 μL of aptamers with serial dilutions for 30 min with gentle rotation. Following washing steps, the bound DNA was then analyzed by 10% dPAGE. The apparent dissociation constants (Kd) of each aptamer candidate were obtained by fitting the fractional bound DNA to the total aptamer concentration using a one-site binding model.
(§2) The inventors measured the dissociation constant (Kd) for Capt-2 and Capt-4 using the same pull-down assay, along with their linear counterparts, Lapt-2 and Lapt-4 (FIG. 2b). […] The structural prediction with the m-fold program (http: //unafold.rna.albany.edu/?q=mfold) also provides a good rationale for the functionality of aptamer 2 in both circular and linear configurations, as the random-sequence nucleotides are predicted to form the same structural elements in both forms (FIG. 9). […]

[4] = target: T2, glutamate dehydrogenase (nGDH, native) (Clostridium difficile, UniProt P27346 SEQ:1-421); test: FP filter; paper filter binding; binding buffer with 10 mM MgCl2, 1% BSA; settings: tags: Pro-Lab Diagnostics; chain copies: 6 stated; label: 32P
T2 sequence: T1 sequence

[5] = target: T1, glutamate dehydrogenase (rGDH, …); test: pulldown; 10 mM MgCl2, pH 7.2, 25 C; no detectable binding in dot blot (p157); settings: tags: His-tag; expressed in E. coli; Pro-Lab Diagnostics; chain copies: 6; label: 32P; linear
Method: as §1, §2

[6] = target: T1, glutamate dehydrogenase (rGDH, …); test: pulldown; […]; 50 mM HEPES, 150 mM NaCl, 10 mM MgCl2, 5 mM KCl, 0.02% Tween-20, pH 7.2, 25 C; settings: tags: His-tag; expressed in E. coli; Pro-Lab Diagnostics; chain copies: 6; label: 32P
[7] = target: T1, glutamate dehydrogenase (rGDH, …); test: pulldown; settings: tags: His-tag; expressed in E. coli; Pro-Lab Diagnostics; chain copies: 6; label: 32P; linear
Method: 100 μL of 1× binding buffer containing 100 nM γ-[³²P]-labeled captamer candidates was first denatured at 90° C. for 10 min, followed by incubation at RT for 20 min. The pull-down assays were conducted in a total volume of 300 μL of 1× binding buffer containing 50 μL of bead-bound rGDH (final concentration ˜50 nM) and 100 μL of 100 nM captamer candidates for 30 min with gentle rotation. In parallel, negative controls consisting of the captamers incubated with uncoated beads were included. Following three washing steps, proteins and bound aptamers were eluted with 30 μL of elution buffer (20 mM Tris-HCl, 500 mM imidazole, pH 7.5) by shaking at 90° C. for 10 min. The resultant mixtures were then analyzed by 10% dPAGE, and quantified by Image Quant software. […] Pull-down assays were conducted in a total volume of 300 μL of 1× binding buffer containing 10 μL of bead-bound rGDH (final concentration ˜9.2 nM) and 100 μL of aptamers with serial dilutions for 30 min with gentle rotation. Following washing steps, the bound DNA was then analyzed by 10% dPAGE. […]
The inventors measured the dissociation constant (Kd) for Capt-2 and Capt-4 using the same pull-down assay, along with their linear counterparts, Lapt-2 and Lapt-4 (FIG. 2b). […]

[8] = target: T1, glutamate dehydrogenase (rGDH, …); test: pulldown; no affinity to rGDH; settings: tags: His-tag; expressed in E. coli; Pro-Lab Diagnostics; chain copies: 6; label: 32P
Method: as §1, with “The pull-down assays were conducted in a total volume of 300 μL of 1× binding buffer containing 50 μL of bead-bound rGDH (final concentration ˜50 nM) and 100 μL of 100 nM captamer candidates for 30 min with gentle rotation. In parallel, negative controls consisting of the captamers incubated with uncoated beads were included. Following three” for “Following three”
However, Capt-4 was a new sequence that was not observed in the previous selection. […] In this assay, each captamer candidate was incubated with bare NiMBs or rGDH-coated NiMBs, followed by elution of the bound captamer and radioactivity analysis by dPAGE (FIG. 2a).

[9] = target: T1, glutamate dehydrogenase (rGDH, …); test: pulldown; competes with Anti-G1, Anti-G3, Anti-G7; settings: tags: His-tag; expressed in E. coli; Pro-Lab Diagnostics; chain copies: 6; label: 32P; linear

B1: Anti-G3 (ssDNA)
DNA: CAGGTCCATCGAGTGGTAGGATGCAGCGGACAGTGTGGGACCATCGCTGCGGATGTATGAATCGCACTGCTCCTGAACGTAC
[1]
  binding result: binds

B2: Capt-4 (ssDNA)
DNA: CAGGTCCATCGAGTGGTAGGACGACCCGAATAGTGGCATATCAATGAGTGCTTGTCATCTTTCGCACTGCTCCTGAACGTAC
[2]
  binding result: no binding
Toxin B (TcdB)
  binding result: no binding
Toxin A (TcdA)
  binding result: no binding
[3]
  Kd: 12.3 nM
[4]
  Kd: 2.8 nM

B3: Lapt-4 (ssDNA)
DNA: B2 DNA
[5]
  Kd: 293 nM

B4: Capt-2 (ssDNA)
DNA: CAGGTCCATCGAGTGGTAGGAGGAGGTATTTAGTGCCAAGCCATCTCAAACGACGTCTGAGTCGCACTGCTCCTGAACGTAC
[6]
  Kd: 4.4 nM

B5: Lapt-2 (Anti-G1) (ssDNA)
DNA: B4 DNA
[7]
  Kd: 5.6 nM

B6: Scrambled Capt-4 (ssDNA)
DNA: GAAGGATTCGGACTAGGATCCGGTCCAACTACCGGTGCCCTAATGGCATCAAAACTGCGTACCGAGCGTGTTTATCTTTCTG
[8]
  binding result: no binding

B7: Anti-G1T1 (ssDNA)
DNA: TAGGAGGAGGTATTTAGTGCCAAGCCATCTCAAACGACGTCTGAGTCGCACTGCTCCTG
[9]
  binding result: binds

B8: Anti-G7 (ssDNA)
DNA: CAGGTCCATCGAGTGGTAGGACCCAACCCACGATGCGCAAGAGGAATGCAGCCTACCAGCATCGCACTGCTCCTGAACGTAC
[1]
  binding result: binds

B9: Scrambled Capt-2 (ssDNA)
DNA: CGGGAGTACGCATGTATGAGACACCCACGCTATGTCCCTACTATGAGGTGGAGACTTGCTACGTGCATCGCAGATCGGTCAA
[8]
  binding result: no binding
